Our source for the amyloid nucleation score values is the supplement of paper PMC12042874.

± gives the uncertainty stated by the source.

Data set [1] can be described thus: amyloid nucleation score (Sup35N fusion, yeast selection) (log enrichment); library NNK2; higher = more nucleation; inactive = no reads after selection. In a few lines:
(§1)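 Output and input plasmid inserts were sequenced by Illumina after psi-negative yeast carrying Sup35N fused to peptides of 20 random codons had been induced 24 hours with 100 μM copper sulfate and grown 7 days at 30°C on medium lacking adenine and uracil. The nucleation score is the DiMSum log enrichment of output over input reads, centred on the mode score of non-aggregating sequences. Sequences with under 100 input reads were excluded.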

Data set [2] is described as follows: amyloid nucleation score (Sup35N fusion, yeast selection) (log enrichment); library NNK3; higher = more nucleation; inactive = no reads after selection. In a few lines:
as §1

NIQPEK gave an amyloid nucleation score in data set [1] of -0.587 ± 0.39. For the substance RFDWVA, the amyloid nucleation score in data set [1] was -0.038 ± 0.45.

Consider VVQSYFIRREEFLLSCVQAG, for which the amyloid nucleation score result in data set [2] is “inactive”.

Consider RRNMYLL, for which the amyloid nucleation score in data set [2] was -1.31 ± 2.5. As for FGTNVPISNLIKEVLYIRYS, the amyloid nucleation score entry in data set [2] was “inactive”. As for MLLFACQRLQLVALLGARML, the amyloid nucleation score result in data set [2] was “inactive”.

For CADQWS, the amyloid nucleation score entry in data set [2] was “inactive”. Consider PRMRA, for which the amyloid nucleation score entry in data set [2] was “inactive”. LYVGEKLVHFLEARMD: in data set [2], the amyloid nucleation score entry is “inactive”.

Turning to NENTALSTWAPGYLINSYRA, the amyloid nucleation score result in data set [2] was “inactive”. Turning to GTYSTVKFCLCMWVILAPSS, the amyloid nucleation score result in data set [2] is “inactive”.

As for SWTSEGDWHYFGYIEVVWHY, in data set [2], the amyloid nucleation score entry is “inactive”.

For the substance DYIRRWLVYAYDKVFCRLTV, the amyloid nucleation score entry in data set [2] is “inactive”. With IVGLDWKNATVRDCRRNFIN, the amyloid nucleation score result in data set [2] is “inactive”. VRSNVKDRFT: the amyloid nucleation score result in data set [2] is “inactive”. With GISPQC, the amyloid nucleation score entry in data set [2] was “inactive”.

For the substance KRDHMVSLGYSLGSKQRGVG, in data set [2], the amyloid nucleation score result is “inactive”. Take NAWIFVKRFS: the amyloid nucleation score entry in data set [2] was “inactive”. On the same count and under the same terms, the result for MQLDYSSSVLNMFLDANILY reads “inactive”. MYLITGAFLCIHQHG yielded an amyloid nucleation score in data set [2] of 1.71 ± 0.075.

Consider AYMLGITQNNGNHLNSSRRR, for which, in data set [2], the amyloid nucleation score entry is “inactive”.

As for FSVHRGLLFITQGSDVAEHV, the amyloid nucleation score entry in data set [2] is “inactive”. FYSFCQSKSLMTFSGDLPPS: the amyloid nucleation score result in data set [2] was “inactive”. With KGTPGLDFTAADPGVIAL, the amyloid nucleation score entry in data set [2] was “inactive”. In the case of DSHFKVYVPRQLREAREPVK, in data set [2], the amyloid nucleation score entry is “inactive”. With YFRYIWEHMLVYGRVAKDDP, the amyloid nucleation score entry in data set [2] was “inactive”.

For CFNRITDC, the amyloid nucleation score entry in data set [2] is “inactive”. On to ICYSNDSLYMLLESS, for which the amyloid nucleation score entry in data set [2] was “inactive”.

Take MVMNYWSTCNYSWPEVVISG: in data set [2], the amyloid nucleation score entry was “inactive”. Take ILVDWFDCDQCKQTFCPGLV: the amyloid nucleation score entry in data set [2] was “inactive”. KSAREFGAHFMSTITVACTR: the amyloid nucleation score result in data set [2] was “inactive”. Consider LGRCDVIVKEFVTIIA, for which the amyloid nucleation score entry in data set [2] was “inactive”. As to NNYSRVLSSIIEGIVIR, the amyloid nucleation score entry in data set [2] is “inactive”. Same read-out and setting: the result for KENFASVCCGCYPMQPPGIM reads “inactive”; that for MIVSSYFYLVRIQYEFHAGW, 0.172 ± 0.43; that for NSSNII, 2.56 ± 0.067. For the substance PPRLTS, the amyloid nucleation score result in data set [2] was “inactive”. As to SYCLYKLQLLWHDNHGFGYN, the amyloid nucleation score result in data set [2] is “inactive”. With YYFLLIGSW, in data set [2], the amyloid nucleation score entry is “inactive”. KRKRVK: the amyloid nucleation score result in data set [2] was “inactive”. Turning to YVKIDSRFHGVSHFRFHTAY, the amyloid nucleation score result in data set [2] is “inactive”. ILISMEPPLFRDTLKNTGNC: the amyloid nucleation score result in data set [2] is “inactive”.

Turning to NKLIRSEVSLLAMCMCSGNG, the amyloid nucleation score result in data set [2] is “inactive”.

For the substance FWFFTSMLVSVCLMRASRCL, the amyloid nucleation score entry in data set [2] was “inactive”. For the substance LLYVICPVRINLRHWRATDS, the amyloid nucleation score in data set [2] stood at 0.487 ± 0.17.

Consider NFLKSG, for which, in data set [2], the amyloid nucleation score entry was “inactive”. Consider LDVGIVYSLVVCRKIRRSL, for which, in data set [2], the amyloid nucleation score entry is “inactive”.

YQMTNCSLFFTTLYSVNYDY: the amyloid nucleation score in data set [2] stood at 2.81 ± 0.082. For the substance FFGWSSRVSSACAVPVEINS, the amyloid nucleation score entry in data set [2] is “inactive”.

In the case of IALKGRAFAHEGCLRGRRGG, in data set [2], the amyloid nucleation score entry is “inactive”. Still for that read-out and setting: the result for FDIIVQITYHVWNMNVHF reads 0.932 ± 0.1. Take EMMLWSFNREFMTFYTRSVD: the amyloid nucleation score result in data set [2] was “inactive”. Consider RDQEHSRTFISM, for which, in data set [2], the amyloid nucleation score result is “inactive”. In the case of DNSCVMMKTGGRYFELFRVV, in data set [2], the amyloid nucleation score entry is “inactive”. On the same count and under the same terms, the result for STHKFNRNFIMSFAWLFICW reads “inactive”; that for EGGCYSPKHG, 0.741 ± 0.28; that for LHWSIDR, “inactive”. For the substance FFLVLNSACME, the amyloid nucleation score in data set [2] is 0.058 ± 0.36. For the substance GVNIRCLRDDDSRLLKERSC, the amyloid nucleation score result in data set [2] was “inactive”. Still for that read-out and setting: the result for SWGMLSY reads “inactive”. For GLSCDYCTNLVMCCDPQL, in data set [2], the amyloid nucleation score turned out to be 0.06 ± 0.25.

Regarding RSSLNDNRYKCNSGSSVYGS, the amyloid nucleation score result in data set [2] was “inactive”.

Take YCMGYSMHIV: in data set [2], the amyloid nucleation score result is “inactive”. MLFRLRSAYHTASDVDANDD: the amyloid nucleation score result in data set [2] was “inactive”. Still for that read-out and setting: then SVMHKSRSRGFNRNDGSVRV, with “inactive”.

Take LRYASTSSFLVFQRDTLANE: the amyloid nucleation score result in data set [2] is “inactive”.

With YRKMRAEEDKWMVWVYSRRC, in data set [2], the amyloid nucleation score result was “inactive”. In data set [2], RYRTRRALHVYDEFVFEFKP yielded an amyloid nucleation score of -0.057 ± 0.68. SKRVSALRHKIRKNCVMNFD: in data set [2], the amyloid nucleation score result is “inactive”. On to YLRAAIL, for which the amyloid nucleation score result in data set [2] was “inactive”. For SLVGRSCLRY, the amyloid nucleation score entry in data set [2] was “inactive”.

Turning to VCVNSLPYLICDIRVIIDRG, the amyloid nucleation score in data set [2] stood at 1.11 ± 0.13.

Consider STGFGE, for which the amyloid nucleation score result in data set [2] was “inactive”. Still for that read-out and setting: the result for VFYSKKDRMGGQFS reads “inactive”. Take LFRLYKYLQCPSQGWCPRH: the amyloid nucleation score entry in data set [2] is “inactive”. HSLVVPIPSPILRVLKE: the amyloid nucleation score entry in data set [2] is “inactive”. The same measure, in the same setting: then NIWNWNNRVLFCEAGMGTCI, with “inactive”; and GGSIVVCLRHHRDLSMHSWD, with “inactive”; and NVRVGILQR, with “inactive”. Same read-out and setting: the result for KPDVY reads “inactive”. As for FRFASYRSYLIVMP, the amyloid nucleation score entry in data set [2] was “inactive”. TVHILANRPRAQYD: the amyloid nucleation score result in data set [2] was “inactive”. Still for that read-out and setting: then AKQVGLY, with “inactive”; and LRCGSSSDELCMREWFRVDL, with “inactive”; and VALWLVWLFYMRFRGSSFEL, with “inactive”. For the substance WAFGYFGCYFQFLVLQDSVG, the amyloid nucleation score in data set [2] came out at 1.87 ± 0.1. The same measure, in the same setting: then DTLYIASYEAVSGLRSPYER, with “inactive”; and TIGFFSVVNYVWFSAYNWQS, with -0.453 ± 0.35. In turn, IVGIKVDIYNTSGCS came in with an amyloid nucleation score in data set [2] of 1.7 ± 0.12. As for KRCWLWWIKVCTKMLLEVSS, in data set [2], the amyloid nucleation score entry is “inactive”. In the case of ARFFVVGLWCVSIKIVPFFD, the amyloid nucleation score result in data set [2] was “inactive”. On the same count and under the same terms, the result for EIVTRERIPEWYSLLLMGLP reads “inactive”; that for MYLIYGHGTIIICTESVSVH, 0.361 ± 0.15; that for ALMGHE, “inactive”.

With MICLLSSSCKRRCLMG, in data set [2], the amyloid nucleation score entry is “inactive”. Turning to QEYSGHATSGAHMRWAYSVE, in data set [2], the amyloid nucleation score entry is “inactive”.

On to INWFGVRYRYDSSNYFMYQL, for which the amyloid nucleation score in data set [2] was 0.986 ± 0.21. On to LKWQVRHLWGNDVVGHRYTH, for which, in data set [2], the amyloid nucleation score was -0.546 ± 0.6. Regarding EPESTRMGLSTTILPVFRCL, the amyloid nucleation score in data set [2] is -0.158 ± 0.83. In data set [2], VAFMIHYMKLPKYSHPWVHN registered an amyloid nucleation score of 0.041 ± 0.59. Consider SSWMYGFCVSKSSWPRL, for which the amyloid nucleation score in data set [2] is -0.272 ± 1.4. NFSCSSRNRWMCMDVGKVCR came in with an amyloid nucleation score in data set [2] of -0.287 ± 0.34. Consider VFVNSYS, for which, in data set [2], the amyloid nucleation score entry is “inactive”. For IVKCLYVVCV, the amyloid nucleation score result in data set [2] is “inactive”.

Turning to PGSFNLILVTYIGLLQKLLH, the amyloid nucleation score in data set [2] is 0.993 ± 0.16. Same read-out and setting: the result for VICGYLYVYVYHGFVGSLLG reads “inactive”; that for YWGKRSF, “inactive”; that for SDMVVKGERGYICILICRLR, “inactive”. On to YWSCRWGLVLVS, for which, in data set [2], the amyloid nucleation score entry is “inactive”.

Take FCATRTKVGLHGYASCEDCG: the amyloid nucleation score in data set [2] was -0.249 ± 0.48. The same measure, in the same setting: the result for SCLTDKRSCFC reads 0.538 ± 0.34. For TICLDLLDWEVEGPYNVVSG, the amyloid nucleation score result in data set [2] is “inactive”. For LFYLYF, in data set [2], the amyloid nucleation score result is “inactive”.

In data set [2], LVDCFKLCRELNGLILNVAA came in with an amyloid nucleation score of 1.07 ± 0.12. As to ANSYHWTVFVRMFSQDIVNI, the amyloid nucleation score result in data set [2] was “inactive”. FYPKQYQKLSYVWWY: in data set [2], the amyloid nucleation score result is “inactive”. Regarding KFARV, the amyloid nucleation score entry in data set [2] is “inactive”. On to VKSRNENIDPGCWRLELAPF, for which the amyloid nucleation score entry in data set [2] was “inactive”. Same read-out and setting: the result for SNSRVGIFWDRLVFRYCRGM reads -0.5 ± 1. EVSFDNLRGWH: the amyloid nucleation score result in data set [2] was “inactive”.

As to VWPQNLNPICKSNLTRCVGC, the amyloid nucleation score result in data set [2] is “inactive”. Still for that read-out and setting: then RMGHWCRVAGSKLLGVV, with -0.131 ± 1.2; and TGIGSLCVLRLTYFIRVSIA, with “inactive”; and YSFLGRNSIISCIR, with “inactive”. On to SISTFYMLNMLKNMHLDGFG, for which the amyloid nucleation score result in data set [2] was “inactive”. In the case of FIIISIYGCIIVRWTKRAWG, the amyloid nucleation score entry in data set [2] is “inactive”. Consider NAVRLVGSPAVVVSTMGHN, for which, in data set [2], the amyloid nucleation score result was “inactive”. As for RYLGWFLKCTACRDHSEFII, the amyloid nucleation score result in data set [2] is “inactive”. EFIALSVFLLNFVSCLWSNV: the amyloid nucleation score result in data set [2] is “inactive”. In the case of FSNSSGNGEGDLRENLQNKM, the amyloid nucleation score result in data set [2] is “inactive”. In the case of TIPFRAINPVSM, the amyloid nucleation score entry in data set [2] was “inactive”.
